Results from patent publication US20250011431A1 (ADIVO, published 2025).
Positions count from the first letter of the chain named. Blank lines part the entries; values can stand above or below the binder they belong to.

What was measured:
[1] = molecular target: T1, biotinylated cPD-L1_hFc (Sino Biological Cat. 70110-D02H-B) (canine; human, biotinylated (sites not given)); assay: Fab-capture ELISA: Fab on anti-canine Fab capture antibody, cPD-L1_hFc-Biotin titrated
T1 construct: also called cPD-L1-biotin; cPD-L1_hFc-Biotin; not shown: human Fc tag (hFc)
T1 chain: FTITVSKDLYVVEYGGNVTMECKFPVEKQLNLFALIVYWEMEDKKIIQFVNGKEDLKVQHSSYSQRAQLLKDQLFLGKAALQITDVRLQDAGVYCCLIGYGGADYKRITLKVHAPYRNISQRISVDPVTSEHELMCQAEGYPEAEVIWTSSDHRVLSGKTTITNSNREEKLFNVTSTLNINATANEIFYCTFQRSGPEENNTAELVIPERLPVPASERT
Experimental: The screening was performed as described in Example 4. Fab binders of CAN1005016 and CAN1005019 were loaded onto plate-bound anti-canine Fab capture antibody, followed by addition of titration series of cPD-L1_hFc-Biotin. Detection was performed with Streptavidin-HRP. The parental clone CAN1005001 was included as a control. Curve fits and EC50 values were analyzed with GraphPad Prism.

PD-L1-his [2] = molecular target: T2, PD-L1-his (canine); assay: grating-coupled interferometry (waveRAPID): antibody captured on PAG chip, PD-L1-his as analyte, 1:1 fit, 25 C
T2 construct: also called monovalent PD-L1 antigen; not shown: his tag
T2 chain: T1 chain
Experimental: (§1) To further characterize the kinetic properties of our candidates CAN1005016 and CAN1005019, the KD of our candidates was quantified using waveRAPID in a GCI system according to the procedure described below. The binding kinetics study was performed on the Creoptix® WAVEdelta system using a PAG sensor chip (Creoptix, a Malvern Panalytical brand). All experiments were performed with HBS-EP (Cytiva) as running buffer, at a temperature of 25° C. and sampling rate of 10 Hz. Data acquisition and evaluation were performed using WAVEcontrol software version 4.5.13.
(§2) Prior to ligand capturing, the sensor chip was conditioned by a 180 sec injection of 100 mM sodium borate, 1 M NaCl, pH 9 (Xantec). Antibody was diluted to 1 μg/ml in HBS-EP and captured to a density of =300 pg/mm2 on flow channel 2. Flow channel 1 was left blank to serve as a reference surface. For collection of kinetic data, PD-L1-his was diluted to 200 nM in HBS-EP and injected over ligand and reference surfaces in repeated analyte pulses of increasing duration (waveRAPID) at flowrate of 60 μl/min. PD-L1-his was injected for a total duration of 180 sec, followed by measuring complex-dissociation in running buffer for 30 min. Blank injections were performed to enable double referencing of the data and a 0.5% DMSO pulse injection (running buffer with 0.5% DMSO) was used as an analyte concentration modulation calibration curve. Data were corrected (X and Y offset, DMSO calibration, double referencing) and fitted with a simple 1:1 interaction model (global fit) to obtain kinetic parameters.

PD-L1-his [3] = molecular target: T2, PD-L1-his; assay: grating-coupled interferometry, KD compared with that of CAN1005010H2
Experimental: as §1
as §2, with “Data were corrected (X and Y offset, DMSO calibration, double referencing) and fitted with a simple 1:1 interaction model (global fit) to obtain kinetic parameters.” left out

canine PD-L1 on cells = molecular target: T3, canine PD-L1 on cells (canine); assay: flow cytometry on HEK293c18 cells transfected with canine PD-L1
T3 construct: also called wildtype canine PD-L1 on transfected HEK293c18 cells
T3 chain: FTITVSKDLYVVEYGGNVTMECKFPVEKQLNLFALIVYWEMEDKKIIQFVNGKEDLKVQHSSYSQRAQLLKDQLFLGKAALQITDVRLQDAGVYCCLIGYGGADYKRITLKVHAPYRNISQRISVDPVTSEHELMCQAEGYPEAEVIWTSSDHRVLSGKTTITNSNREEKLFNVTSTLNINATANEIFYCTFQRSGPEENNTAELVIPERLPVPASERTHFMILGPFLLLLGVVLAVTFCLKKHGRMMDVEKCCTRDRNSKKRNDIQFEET
Experimental: HEK293c18 cells were seeded in 6 well plates at a density of 1×10⁶ cells/well in DMEM+10% FCS. The next day, the transfection mix was prepared. […] Per well, 2 μg of the plasmid encoding for wildtype canine PD-L1 was diluted in 200 μl jetPRIME buffer. The solution was mixed and 4 μl of the transfection reagent was added, followed by mixing and centrifuging of the mixture. Then, the medium of the adherent cells is replaced by fresh medium and the transfection mix is carefully added onto the cells. The plate containing the transfected cells is placed back in the incubator and incubated for 24 h.
The cells were washed once by addition of 200 μl per well PBS/EDTA and centrifugation at 1500 rpm for 5 min. The supernatant was carefully decanted by holding the plate upside down above a waste and dried on a paper towel. Then, the cells were stained for dead cells with the dye Zombie violet (Biolegend; Cat.: 423114) diluted 1:500 in PBS/EDTA for 15 minutes at 4° C. in the dark. Subsequently, cells were washed with FACS Buffer (PBS/EDTA+2% FCS) as described above. Titration series of CAN1005016 and CAN1005019 usually ranging from 10 ng/ml to 10 μg/ml were prepared diluted in FACS buffer and added to the respective wells for a 30-minute incubation at 4° C. in the dark. […] Finally, the cells were washed again 3× and then resuspended in 200 μl FACS buffer and measured directly.

[4] = molecular target: T4, cPD-L1_hFc (canine PD-L1 Fc-fusion protein; Sino Biological Cat. 70110-D02H) (canine; human); assay: ELISA ligand-binding inhibition, cPD-L1_hFc on the plate, competitor PD-1-Biotin (206 nM)
T4 construct: Bought product; also called canine PD-L1_hFc; cPD-L1 fusion protein; not shown: human Fc tag (hFc)
T4 chain: T1 chain
Experimental: cPD-L1 fusion proteins were directly immobilized on the plate overnight at 4° C., commonly in a concentration of 57 nM. For […] ELISA, black 384 well Maxisorp plates were used. The coated plates were washed 3× with PBS-T, followed by blocking with Chemiblocker (Merck-Millipore; 2170) for 1 h at RT. The blocked plates were washed 3× with PBS-T, followed by addition of titration-series of blocking antibodies and incubation for 1 h at RT. Subsequently plates were washed again 3× with PBS-T and PD-1-Biotin (1× biotinylated via Avi-tag; Sinobiological Cat.: 70109-D27H-B) was added and incubated for 1 h at RT, usually in a concentration of 4 μg/ml (206 nM). This concentration of canine PD-1-Biotin was previously identified as optimal by titrating the binding of PD-1-Biotin towards immobilized canine PD-L1_hFc. After incubation with the ligand PD-1, the plate was washed 3× with PBS-T and suitable detection reagent for the biotinylated PD-1, usually Streptavidin-HRP, was added and incubated for 1 h at RT. Subsequently, the plate was washed 5×, followed by addition of Quanta Blue and measurement as described above for the screening ELISA.

[5] = molecular target: T4, cPD-L1_hFc (canine PD-L1 Fc-fusion …); assay: binding ELISA, IgG titrated on plate-bound cPD-L1_hFc
Experimental: cPD-L1 fusion proteins were directly immobilized on the plate, commonly in a concentration of 57 nM. For binding ELISA, black 384 well Maxisorp plates were used. This was performed overnight at 4° C. The coated plates were washed 3× with PBS-T, followed by blocking with Chemiblocker (Merck-Millipore; 2170) for 1 h at RT. After blocking, dilution series of the respective antibodies were added to the plate usually covering concentrations ranging from the single digit ng/ml to the single-digit ug/ml range. Antibodies were also incubated for 1 h at RT, followed by washing and by addition of suitable detection antibodies coupled to HRP. Measurement was carried out as described above for the Screening ELISA.

[6] = molecular target: T1, biotinylated cPD-L1_hFc (Sino …); assay: Fab-capture ELISA: Fab from lysate on anti-canine Fab antibody, cPD-L1-biotin titrated
Experimental: To identify derivatives with a higher affinity, an alternative ELISA setup was used for screening to better normalize BEL expression levels and differentiate Fabs more efficiently with respect to their affinity. In contrast to the previous screening ELISA setup, a Maxisorp plate was coated over night with an anti-canine Fab antibody in a low density of 1 μg/ml. Coated plates were washed 3× with PBS-T, followed by loading with diluted BELs. After the BEL incubation and washing with PBS-T, dilution series of cPD-L1-biotin was added to the plate. Detection was performed with Streptavidin-HRP, followed by more stringent 5× washing with PBS-T and Quanta Blue substrate addition. Measurement was performed as described before (Example 1).

[7] = molecular target: T4, cPD-L1_hFc (canine PD-L1 Fc-fusion …); assay: binding ELISA, cPD-L1 fusion protein on the plate

B1: CAN1005016 Fab (Fab, V domains shown)
VH: EVQLVESGGDLVKPGGTLRLSCVASGFTFSSYDMSWVRQSPGKGLQWVAVIWNTGSHAYYADAVKGRFTISRDNAKNTLYLQMNSLRAEDTAVYYCARGRQPRLVGTLDLWGQGTLVTVSS
VL: SYVLTQLPSVSVTLRQTARITCGGDSIGSKNVYWYQQKLGQAPVLIIYDDSSRPSGIPERFSGANSGNTATLTISGALAEDEADYYCQTYDSLVDVGVFGGGTQLTVL
EC50 [1]: 87 pM

B2: CAN1005016 IgG (antibody, V domains shown)
VH: B1 VH
VL: SYVLTQLPSVSVTLRQTARITCGGDSIGSKNVYWYQQKLGQAPVLIIYDDSSRPSGIPERFSGANSGNTATLTISGALAEDEADYYCQTYDSLVDVGVFGGGTQLTVLG
notes: also called biotinylated CAN1005016
Kd (PD-L1-his [2]): 770 pM
fold improvement in affinity against CAN1005010H2 (PD-L1-his [3]): > 3 fold
EC50 (canine PD-L1 on cells): 10500 pM
IC50 [4]: 950 pM
EC50 [5]: 76 pM

B4: CAN1005001L1 Fab (Fab, V domains shown)
VH: EVQLVESGGDLVKPAGSLRLSCVASGFTFSSYSMSWVRQAPEKGLQLVAGISSGGSSTYYTDAVKGRFTISRDNAKNTVYLQMNSLRAEDTAMYYCARGQGGRSSFDYWGQGTLVTVSS
VL: B1 VL with T89S, S92I, L93P, V94L, D95T, V96G, G97T
notes: Fab from bacterial lysate
EC50 [6]: 362 pM

B5: CAN1005001 IgG (antibody, V domains shown)
VH: B4 VH
VL: B1 VL with T89S, D91A, S92M, L93P, V94L, D95T, V96G, G97T
notes: also called initial clone CAN1005001; parental clone CAN1005001
IC50 [4]: 4600 pM
EC50 [7]: 400 pM

B6: CAN1005010H2 Fab (Fab, V domains shown)
VH: B1 VH
VL: B1 VL with Q88S, V94L
notes: Fab from bacterial lysate
EC50 [6]: 121 pM

B7: CAN1005010L1 Fab (Fab, V domains shown)
VH: B1 VH with T54E, H57S, A58T
VL: B1 VL
notes: Fab from bacterial lysate
EC50 [6]: 139 pM

B8: CAN1005001 Fab (Fab, V domains shown)
VH: B4 VH
VL: B1 VL with T89S, D91A, S92M, L93P, V94L, D95T, V96G, G97T
notes: also called parental clone CAN1005001
EC50 [6]: 820 pM

B11: CAN1005019 IgG (antibody, V domains shown)
VH: B4 VH with G50W, S52D, S53A, G54Y, G55A, S56G, S57V, Y59S, T61A, D62N
VL: B2 VL with T89S, S92I, L93P, V94L, D95T, V96G, G97T
notes: also called biotinylated CAN1005019
Kd (PD-L1-his [2]): 1700 pM
EC50 (canine PD-L1 on cells): 11800 pM
IC50 [4]: 1320 pM
EC50 [5]: 49 pM

The next lines start with the values.

Kd (PD-L1-his [2]): 2800 pM
B3: CAN1005010H2 (as captured in the GCI measurement of anti-PD-L1 IgGs) (antibody, V domains shown)
VH: B1 VH
VL: B1 VL with Q88S, V94L
notes: also called parental clone CAN1005010H2

EC50 [6]: 97 pM
B9: CAN1005001H3 Fab (Fab, V domains shown)
VH: B4 VH with G50W, S52D, S53A, G54Y, G55A, S56G, S57V, Y59S, T61A, D62N
VL: B1 VL with T89S, D91A, S92M, L93P, V94L, D95T, V96G, G97T
notes: Fab from bacterial lysate

EC50 [1]: 138 pM
B10: CAN1005019 Fab (Fab, V domains shown)
VH: B4 VH with G50W, S52D, S53A, G54Y, G55A, S56G, S57V, Y59S, T61A, D62N
VL: B1 VL with T89S, S92I, L93P, V94L, D95T, V96G, G97T
